Assays:
[1] = molecular target: TL-M2e5x fusion protein (Toll-like receptor ligand sequence plus five tandem heterologous M2e domain); assay: ELISA on VLPs with 14C2
[2] = molecular target: TL-M2e5x fusion protein (Toll-like receptor ligand sequence plus five tandem heterologous M2e domain); assay: ELISA on VLPs and virus with 14C2

“Influenza A virus M2 monoclonal antibody 14C2 (Abcam Inc., Cambridge, Mass.)” was tested, and the fold reactivity relative to M2WT VLP [1] was > 60 fold and the fold reactivity relative to A/Philippines/2/82 virus [2] was 500 fold.
